Test results as given in patent US6770739B1, “Enhancers of CFTR chloride channel function” (Case Western Reserve University, priority 1999, dated 2004).

Experiments:
[1] = target: T1, wt-CFTR channel (Homo sapiens, UniProt P13569); assay: Single channel recording of wt-CFTR reconstituted in planar lipid bilayer; format: biochemical
T1 construct: made in house; host or cells: 293-EBNA HEK cells (Invitrogen), transient transfection with pCEP4(wt); microsomal membrane vesicles
Method: (§1) To test whether the NEG2 region is responsible for both stimulatory and inhibitory interactions between the R domain and other domains, synthetic NEG2, a 22 amino acid peptide, was added to the cis-intracellular side of single CFTR channels captured in the planar lipid bilayer (FIG. 3). […] After peptide addition, there are periods of intense stimulation that last 4 to 8 minutes. These stimulatory periods are followed by either a return to the basal level of activity before peptide addition, or by an almost complete inhibition of the channel, where only a flickery 3 pS conductance is observed.
In order to understand the mechanism responsible for the increase in open probability, the gating kinetics of wt-CFTR without peptide and during stimulation by synthetic NEG2 were analyzed. […] Thus, the increase in the open probability is not due to a change in the closing rate of the channel. However, the closed time distribution for the stimulated channel is clearly shifted to the left compared to the control channel (FIG. 4B). There are three components to the closed state, a fast (τc1), an intermediate (τc2) and a long (τc3) closed component. The fast closed component is probably due to closings within a burst (Carson et al., 1995). Therefore, to identify better the closed times between bursts, a delimiter of τc=40 ms was set at the nadir between the fast and intermediate closed times (illustrated by the arrow in FIG. 4B) to generate the closed-burst duration histograms. […] Thus, the interaction of NEG2 with CFTR increased the intermediate-opening rate of the channel. This increase in opening rate is similar to that observed when the phosphorylated R domain protein (amino acids 645-834) was added to CFTR-ΔR/S660A in excised, inside-out patches (Winter and Welsh, 1997). Additionally, modification of C832, which resides within NEG2, by N-ethylrnaleimide (NEM) results in irreversible stimulation of PKA-phosphorylated CFTR chloride channel activity (Cotten and Welsh, 1997), further emphasizing the importance of NEG2 in CFTR regulation.
A human embryonic kidney cell line (293-EBNA HEK; Invitrogen) was used for transfection and expression of the CFTR proteins (Ma et al., 1997, Ma et al., 1996, Xie et al., 1995). The HEK-293 cell line contains a pCMV-EBNA vector, which constitutively expresses the Epstein-Barr virus nuclear antigen-1 (EBNA-1) gene product and increases the transfection efficiency of Epstein-Barr virus-based vectors. The cells were maintained in Dulbecco's Modified Eagle Medium with 10% FBS and 1% L-glutamine. Geneticin (G418, 250 (g/ml) was added to the cell culture medium to maintain selection of the cells containing the pCMV-EBNA vector. Lipofectamine reagent (Life Technologies, Inc) in Optimem media (serum-free) was used to transfect the HEK-293 cells with pCEP4(wt), pCEP4(ΔNEG1), or pCEP4(ΔNEG2). After 5 hours, serum was added to the media (10% final serum concentration). Twenty-four hours after transfection, the transfection media was replaced with fresh media. The cells were harvested two days after transfection and microsomal membrane vesicles were prepared for single channel measurements in the lipid bilayer reconstitution system.
HEK-293 cells transfected with pCEP4(CFTR) were harvested and homogenized using a combination of hypotonic lysis and Dounce homogenization in the presence of protease inhibitors (Ma et al., 1997, Ma et al., 1996, Xie et al., 1995). Microsomes were collected by centrifugation of postnuclear supernatant (4500×g, 15 min) at 100,000×g for 20 min and resuspended in a buffer containing 250 mM sucrose, 10 mM HEPES, pH 7.2. The membrane vesicles were stored at −75° C. until use.
The 22 amino acid peptide corresponding to NEG2 was custom made by Quality Controlled Biochemicals, Inc. The peptide was resuspended in water to a concentration of 1 mg/ml and pH was adjusted to a physiological range (7.2-7.4) using KOH and HCl. […]

[2] = target: T2, ΔNEG2-CFTR channel (Homo sapiens, UniProt P13569, DEL817-838); assay: Single channel recording of ΔNEG2-CFTR reconstituted in planar lipid bilayer; format: biochemical; conditions: 0.44 μM NEG2 peptide, −80 mV, 2 mM ATP, no PKA
T2 construct: made in house; host or cells: 293-EBNA HEK cells (Invitrogen), transient transfection with pCEP4(ΔNEG2); microsomal membrane vesicles
T2 sequence (P13569 with tags, fused parts or gaps DEL817-838): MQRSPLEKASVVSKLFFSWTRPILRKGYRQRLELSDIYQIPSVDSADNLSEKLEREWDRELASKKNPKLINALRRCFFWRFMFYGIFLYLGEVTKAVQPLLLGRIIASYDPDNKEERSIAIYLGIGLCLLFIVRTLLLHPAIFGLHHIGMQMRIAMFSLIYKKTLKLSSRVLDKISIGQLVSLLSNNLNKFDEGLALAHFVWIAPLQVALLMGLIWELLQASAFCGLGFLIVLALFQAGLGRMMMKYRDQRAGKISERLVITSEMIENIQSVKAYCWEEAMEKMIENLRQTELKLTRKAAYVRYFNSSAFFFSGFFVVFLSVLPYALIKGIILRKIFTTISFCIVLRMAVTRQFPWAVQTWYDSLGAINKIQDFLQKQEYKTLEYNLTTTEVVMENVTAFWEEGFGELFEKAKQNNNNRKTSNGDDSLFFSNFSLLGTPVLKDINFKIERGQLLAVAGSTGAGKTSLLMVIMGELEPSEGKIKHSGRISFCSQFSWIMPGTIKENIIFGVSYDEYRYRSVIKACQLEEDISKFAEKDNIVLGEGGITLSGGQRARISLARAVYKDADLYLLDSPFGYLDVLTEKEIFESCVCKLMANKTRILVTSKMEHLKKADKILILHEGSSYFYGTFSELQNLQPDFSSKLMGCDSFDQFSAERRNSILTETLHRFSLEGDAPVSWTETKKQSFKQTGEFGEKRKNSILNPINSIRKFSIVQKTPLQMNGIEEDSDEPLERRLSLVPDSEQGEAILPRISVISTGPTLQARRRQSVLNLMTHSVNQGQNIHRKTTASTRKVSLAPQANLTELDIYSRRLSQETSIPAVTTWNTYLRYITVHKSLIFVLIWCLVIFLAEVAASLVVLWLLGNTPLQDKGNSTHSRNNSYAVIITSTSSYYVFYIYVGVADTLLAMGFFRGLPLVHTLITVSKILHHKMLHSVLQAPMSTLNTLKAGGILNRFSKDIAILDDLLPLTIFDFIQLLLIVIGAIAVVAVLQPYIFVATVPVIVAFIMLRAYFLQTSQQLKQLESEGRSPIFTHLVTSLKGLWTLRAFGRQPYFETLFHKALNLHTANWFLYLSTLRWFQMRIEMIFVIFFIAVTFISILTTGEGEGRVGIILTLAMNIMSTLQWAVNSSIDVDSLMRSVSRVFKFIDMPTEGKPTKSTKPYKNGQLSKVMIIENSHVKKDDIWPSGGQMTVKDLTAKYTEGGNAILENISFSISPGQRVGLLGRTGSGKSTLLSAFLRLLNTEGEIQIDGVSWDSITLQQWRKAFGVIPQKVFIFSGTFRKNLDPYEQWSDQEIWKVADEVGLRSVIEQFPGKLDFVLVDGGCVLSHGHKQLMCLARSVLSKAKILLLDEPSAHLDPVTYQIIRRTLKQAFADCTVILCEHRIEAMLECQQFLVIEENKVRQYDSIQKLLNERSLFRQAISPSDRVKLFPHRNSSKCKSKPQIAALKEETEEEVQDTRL
Description: Single channel measurements indicate that the ΔNEG1-CFTR channel is similar to wt-CFTR in its PKA dependence. No chloride channels are observed in the absence of PKA (FIG. 2A) and the open probability in the presence of PKA and ATP is similar to wt-CFTR. In contrast, the ΔNEG2-CFTR channel opens without PKA (FIG. 2A). The constitutive activity of the ΔNEG2-CFTR channel is unlikely to be due to the endogenous phosphorylation of the ΔNEG2-CFTR protein, since protein phosphatase 2A, which decreases activity of the wt-CFTR opened by PKA and ATP (Ma et al., 1997), has no effect on the ΔNEG2-CFTR channel (n=4).
as §1, with “observed. […]” for “observed.”

[3] = peptide-stimulated, 4.4 μM NEG2 peptide, −80 mV

T1 sequence (P13569 whole entry): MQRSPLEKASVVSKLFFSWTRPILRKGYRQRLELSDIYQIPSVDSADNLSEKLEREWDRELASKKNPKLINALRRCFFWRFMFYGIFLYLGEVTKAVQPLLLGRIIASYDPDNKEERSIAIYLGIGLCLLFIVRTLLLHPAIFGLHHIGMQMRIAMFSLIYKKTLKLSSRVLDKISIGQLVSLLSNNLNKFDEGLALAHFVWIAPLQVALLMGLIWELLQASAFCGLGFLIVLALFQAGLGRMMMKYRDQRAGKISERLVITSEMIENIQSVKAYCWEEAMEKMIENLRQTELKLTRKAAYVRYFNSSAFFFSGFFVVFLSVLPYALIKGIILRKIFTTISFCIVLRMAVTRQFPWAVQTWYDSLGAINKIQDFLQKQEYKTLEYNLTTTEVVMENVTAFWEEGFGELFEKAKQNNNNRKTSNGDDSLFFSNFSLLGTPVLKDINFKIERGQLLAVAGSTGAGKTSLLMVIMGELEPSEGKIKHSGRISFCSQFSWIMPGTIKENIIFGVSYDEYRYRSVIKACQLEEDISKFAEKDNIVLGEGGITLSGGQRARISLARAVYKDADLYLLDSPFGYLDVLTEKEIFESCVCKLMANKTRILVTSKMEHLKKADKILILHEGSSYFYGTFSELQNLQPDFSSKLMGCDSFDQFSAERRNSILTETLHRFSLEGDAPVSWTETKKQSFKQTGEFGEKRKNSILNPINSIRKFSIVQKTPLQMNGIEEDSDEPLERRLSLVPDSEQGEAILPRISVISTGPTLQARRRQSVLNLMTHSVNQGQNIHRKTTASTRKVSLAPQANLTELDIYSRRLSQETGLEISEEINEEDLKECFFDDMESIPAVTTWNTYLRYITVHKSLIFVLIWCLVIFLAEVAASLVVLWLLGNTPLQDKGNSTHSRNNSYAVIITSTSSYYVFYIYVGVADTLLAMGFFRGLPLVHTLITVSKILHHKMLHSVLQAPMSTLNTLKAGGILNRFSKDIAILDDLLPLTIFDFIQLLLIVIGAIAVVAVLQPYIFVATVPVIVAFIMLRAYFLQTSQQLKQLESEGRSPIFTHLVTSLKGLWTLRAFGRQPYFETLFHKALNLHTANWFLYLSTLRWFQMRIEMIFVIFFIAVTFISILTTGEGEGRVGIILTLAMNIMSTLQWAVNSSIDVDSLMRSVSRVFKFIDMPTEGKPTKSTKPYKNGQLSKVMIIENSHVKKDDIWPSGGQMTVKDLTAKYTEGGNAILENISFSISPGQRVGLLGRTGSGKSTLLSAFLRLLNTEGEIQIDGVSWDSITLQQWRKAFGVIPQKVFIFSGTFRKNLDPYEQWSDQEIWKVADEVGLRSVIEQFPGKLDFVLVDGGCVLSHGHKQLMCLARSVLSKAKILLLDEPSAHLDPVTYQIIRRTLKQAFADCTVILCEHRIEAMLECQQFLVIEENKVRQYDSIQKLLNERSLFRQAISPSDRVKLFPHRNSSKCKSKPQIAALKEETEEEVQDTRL

With “NEG2 peptide: Synthetic 22 amino acid peptide corresponding to NEG2, amino acids 817-838 of the CFTR R domain (GLEISEEINEEDLKECFFDDME; listed as Homo sapiens)” the “change of open probability during stimulation” value ([1]; peptide added to cis-intracellular side, 2 mM ATP, 50 units PKA/ml) was “more than doubles”, the “P2, probability of the intermediate closed component” value [1, 3] was 0.957 and the “P3, probability of the long closed component” value [1, 3] was 0.043. The “intermediate closed time τc2” value ([1]; peptide-stimulated, 4.4 μM NEG2 peptide, −80 mV, closed-burst histogram, delimiter 40 ms) was 105 ms, the “concentration at which stimulatory response was observed” value ([1]; stimulation in 6 of 7 experiments, cis-intracellular addition) was at least 0.44 µM and the “concentration at which profound inhibition was observed” value ([1]; three channels, cis-intracellular addition) was at least 4.4 µM. The “effect on ΔNEG2-CFTR channel activity” value [2] was “stimulation is observed”.
